According to the nanobody polyreactivity screen of Harvey et al. (2022):

Assay: yeast display, Sf9 membrane polyspecificity reagent, FACS + sequencing; frameworks hold sequencing errors
Outline: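 A synthetic nanobody library was expressed on Saccharomyces cerevisiae BJ5465 by galactose induction for 36–48 hours. The library was stained for 1 hour at 4 °C with 10% biotinylated, detergent-solubilized Sf9 membrane reagent and enriched with streptavidin microbeads before FACS. Low and high (top ~1%) gates were set on anti-HA fluorescence for expression and streptavidin fluorescence for reagent binding, and each polyreactivity label reflects the gate of origin.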

Sequence	polyreactivity (PSR sort gate)
QVQLVESGGCLVQAGGSLRLSCAASGSIFSGNAMGWYRQAPGKERELVAAISRSGGSKYYADSVKGRFTISRDNAKNTVYLQMNSLKPEDTAVYYFAAYRTHGPPRAIRFDYWGQGTQVTVSS	high polyreactivity
QVQLVESGGCLVQAGGSLRLSCAASGSIFSLYAMGWYRQAPGKEWEFVASISRSGGITYYADSVKGRFTISRDNAKNTVYLQMNSLKPEDTAVYYCAAVGWVSYRRYDYWGPGTQVTVSS	high polyreactivity
QVQLVESGGCLVQAGGSLRLSCAASGSIFSRNVMGWYRKAPGKERELVAAITGSGGRTYYADSVKGRFTISRDNAKNTVYLQMNSLKPEDTAVYYCAKSRPGTYDYWGPGTQVTVSS	high polyreactivity
QVQLVESGGCLVQAGGSLRLSCAASGSIGTYVMGWYRQAPGKQRELVAAITSNGGRKYYADSVKGRFTISRDNAKNTVYLQMNSLKPEDTAVYYCATVNYSPRYTMYYWGQGTQVTVSS	high polyreactivity
QVQLVESGGCLVQAGGSLRLSCAASGSIINYYAMGWFRQAPGKERELVAGITTSGGSTYYADSVKGRFTISRDNAKHTVDLQMNSLKPEDTAVYYCAAYDYSSSTYFLDDYWGQGTQVTVSS	low polyreactivity
QVQLVESGGCLVQAGGSLRLSCAASGSILATNVMGWYRQSPGKESQFVAAISSGGSTNYADSVKGRFTISRDNAKYTVYLQMNSLKPEDTAVYYCATSSIWGSGRVRWVSYYYWGQGSQVTVSS	low polyreactivity
QVQLVESGGCLVQAGGSLRLSCAASGSLFKPYAMGWYIQAPGKEREFVAAINRGGTSTYYADSVKGRFTIARDNAKNTVFLQMKSLKPEDTAVYYCNAESPYYADGDTVRDDYWGQGTQVTVSS	low polyreactivity
QVQLVESGGCLVQAGGSLRLSCAASGSTFNKYAMGWYRQAPGKERELVAAIRSNGVRTYYADSVKGRFSISRDNAKNTVYLQMNSLKPEDTPVYYCNKRYTYRYDYWGQGTQVCVSS	high polyreactivity
QVQLVESGGCLVQAGGSLRLSCAASGSTFNYYAMGWYRQAPGKERELVAAISSSGGRTYYADSVKGRFTISRDNAKNTVYLQMNSLKPEDTAVYYCNARTYSYRGYNYWGQGTQVTVSS	high polyreactivity
QVQLVESGGCLVQAGGSLRLSCAASGSTFPIYAMGWYRQAPGKERELVARITWNGGRTYYADSVKGRFTISRDNAKNTVYLQMNSLKPEDTAVYYCNARRYLRGYGYGYWGQGTQVTVSS	high polyreactivity
QVQLVESGGCLVQAGGSLRLSCAASGSTFRWNSIGSYRQAPVKEREFVASITSGGSTNYADSVKGRYTISRDIAKNTVYLQMNSLKPYDTAVYYCNADVRRSSYYVWLYDYWGQGTQVTVSS	low polyreactivity
QVQLVESGGCLVQAGGSLRLSCAASGSTFYDYDMGWYRQAPGKERELVAAISSSVSTYYADSVKGRFTISRDNAKNTVYFQMNSLKPEDTAVYYCAADYTGVWRYDYWGQGTQVTVSS	low polyreactivity
QVQLVESGGCLVQAGGSLRLSCAASGSTLIEYAMGWYRQAPGKESELVARISKSGDSTYYADSVKGRFTISRDNAKNTVYLQMISLKPEDTAVYYCAKYHRDGFYRSYLRTFDFGYWGQGTQVTVSS	low polyreactivity
QVQLVESGGCLVQAGGSLRLSCAASGSTLRSHAMGWYRQAPGKERELVASISAGGSTSYADSVKGRFTISRDNAKNTVYRQMNSLKPEDTAVYYCAADNSVGSYDYWGQGTEVTVSS	low polyreactivity
QVQLVESGGCLVQAGGSLRLSCAASGSTLRYYAMGWYRQAPGKERELDARIRSNGGSTYYADSVKGRFTISRDNANNTVYLQMNSLKPEETAVYYCAARTYRGQYYTGFGFGYWGQGSQVTVSS	high polyreactivity
QVQLVESGGCLVQAGGSLRLSCAASGSTYPVNAMVWSRKEPGKERELDATISWNDDSTDYADSVKGRFTISRDNAKNNVYLQLKSLKPEDTAVYYCAADWHAWGLYTFNSWGQGTLVTVSS	low polyreactivity
QVQLVESGGCLVQAGGSLRLSCAASGYTFVHYDMGWYRQAPGKEREFVAAISGATYYADSVTGRFTISRDNAKNTVYLQMNSLKLEDTAVYYCNAYAYVESPSDMDYWGQGTQVTVSS	low polyreactivity
QVQLVESGGCLVQAGGSLRLSCAASGYTFYVYAMGWYRQAAGKVRELVSAISGGSNTYYADSVKGRFTISRDNAKNTVYLQMNSLKPEDTALYYCAKSSTTYRQRARYDYWGHGTQVTVSS	high polyreactivity
QVQLVESGGCLVQAGGSLRLSCAASGYTLATYAMGWYRQAPGKERELVAAITSTGGTTYYADSVKGRFTISRDNAKNTVYLPMNSLKPEDTAVYYCNAAAALYKRYDYWGQGTQVTVSS	high polyreactivity
QVQLVESGGCLVQAGGSLRLSCADSGSTFVIYYMGWYRQAPGKERELVAAISYSGGSTYYADSVKGRFTISRDNAKNTVYLQMNSLKPEDTAVYYGYDYWGQGTQVTVSS	low polyreactivity
QVQLVESGGCLVQAGGSLRLSCAPSGYTFGRNAMGWYRQAPGKEWELVATISQRGGSTYYADSVKGRFTISRDNAKNTVYLQLNSLKPEDTAVYYCSAGPIYRYRRYYYWGQGTQVTVSS	high polyreactivity
QVQLVESGGCLVQAGGSLRLSCASSGITFPGYAMGWYRQAPGKERELVAVIRKSGTSTYYADSVKGRFTISRDNAKNTVDLQMNSLKPEDTAVYYCAAGGPSTLDDYWGQGTQGTVSS	low polyreactivity

Sequence	polyreactivity (PSR sort gate)
QVQLVESGGCLVQAGGSLRLSCASSGSTFHSYAMGWYRQAPGKERELVAAISRSGGSTYYADSVKGRFTISRDNAKNTVYLQMNSLKPEDTAVYYCAARDLQFSGYYYWGQGTQVTVSS	high polyreactivity
QVQLVESGGCLVQAGGSLRLSSAASGFTFDKYAMGWYRQAPGKEMELVAAISGSGGTTYYADSVKGRFTISRDNAKNTVYLQMNSLKPEDTAVYYCATRLYSIYSYGYWGQGTQVTVSS	high polyreactivity
QVQLVESGGCLVQAGGSLRLSSAASGSTFQNYAMGWYRQATGKERELVAAISSGGRTYYADSVKGRFTISRDNAKNTVYLQMYSLKPEDTAVYYCAVRYRVYKFQYGYWGQGTQVTVSS	high polyreactivity
QVQLVESGGCLVQAGGSLRLSSAASGSTFYYYVMGLYRQAPGKERELVAAINSGGSTYYADSVQGRFTISRDNAKNTVYLQMNSLKPEDTAVYYCAKSCSYWYQYYYWGQGSQVTVSS	low polyreactivity
QVQLVESGGCLVQAGGSLRLTCAASGIIFYAYAMGWYRQAPGKEREFVAAINNSGGRTYYADSVKGRFTISRDNAKNTVYLQMHSLKPEDTAVYYCAVYSYYRRTYRREMDYWGQGTQVTVSS	high polyreactivity
QVQLVESGGCLVQAGRSLRLSCAASGRTFPTYAMGWYRQAPGKERELVAAIRISGGRTYYADSVKGRFTISRDISKNTVYLQMNSLKPEDTAVYYCATRDRAGYYYWGQGTQVTVSS	high polyreactivity
QVQLVESGGCLVQARGSLRLRCAASGGTFYAYAMGWYREAPGKERELVAAISRSGSTYYADSVKGRFTISRDNAKNTVYLQMNSLKPEDTAVYYCAARRARRDPVGYVYAKYVYWGQGTQVTVSS	high polyreactivity
QVQLVESGGCLVQGGGSLRLTWAASGRTFPYNNMRRYRQAPGKERELVASITYTDGSTSYADCVKGRFTISRDNAKNTVYLQMNSLKPQDTADYYCAAVYYAHQDYRFDYWGQGTQVTVSS	low polyreactivity
QVQLVESGGCSVQAGGSLRLICAASGYTFYINAMGWYRPAPGKERELVAVITWSSGSTYYADSVKGRFTISRDNAKNTVYLQMYSLKAEDTAVYYCAADVTYEDGAWTIQYDYWGQGTQVTVSS	high polyreactivity
QVQLVESGGCVVQAGGSLRLICAASGRTFGRNVMGWYRQAPGKEMELVAAISRSGGSTYYADSVKGRFTISRDNAKNTVYLQMNSLKPEDTAVYYCAAYSVGDYYWGQGTQVTVSS	high polyreactivity
QVQLVESGGDLVQAGGSLRLSCAASGSIFYINAMGWYRQAPGKERELVASISYSGTSTYYADSVKGRFTISRDNAKNTVYLQMNSLKPEDTAVYYCNAEDTPGAGDGYWGQGTQVTVSS	low polyreactivity
QVQLVESGGFLDQAGGSLRLSCAASGFTFYYYAMGWYRQAHAKERELVAAITARGVSTYYADSVKGRFTISRDNAKNTVYLQMNRLNPEDTAVYYCAKRRYYYAPAIPGYYYWGQGTKVTVSS	high polyreactivity
QVQLVESGGFLVQAGGSLRLTCAASGSIIENNAMGWSRQAPRKERELVDAISSDDTTNYADSVKGRFTISRDNAKNTVYLLMNRLLPVDTAVYYCNVDSGPEDKTVTYDYWGQGTQVTVSS	low polyreactivity
QVQLVESGGGFVQAGASLRLSCAASGRTCHGYAMGWYRQAPGKERDLVAAINASGGRTYYAESVKGRFTISRDNAKNTVYLLMNSLNPEDTAVYYCGVYSASFRYGLANDYWGQGTQVTVSS	high polyreactivity
QVQLVESGGGFVQAGCSLRLSCAASGSIFLYNAMGWYRQAPGNDRELVATISYIGGRTYYADSVKGRFSISRDKAKNTVYSQMNSLKPEDTAVYYCAAEYYVISSPSFYEYDYWGQGTQVTVSS	low polyreactivity
QVQLVESGGGFVQAGGSLRLSCAACGRIFATYAMRWYRQAPGKERELVASFSYSDGSTYADSVKGRFTISRDNAKNTVYLQMNSLKPEDTAVYYCAAERLTHWGAFAAYDYWGQGTQVTVSS	low polyreactivity
QVQLVESGGGFVQAGGSLRLSCAASGFTFQYYGMGWYRQAPGKERELVAAINWSGGRTYYADSVKGRFTISRDNAKNTVYLQMNSLKPEDTAVYYCAATRSFSGGYGYVSYDYWGQGTQVTVSS	high polyreactivity
QVQLVESGGGFVQAGGSLRLSCAASGIIFDYDAMGWYRQAPGKERELVAAISKRGGSTYYADSVKGRFTISRDHAKNTVYFQMNSLKPEDTAVYYCAAVYAREAKRYDYWGPGTQVTVSS	high polyreactivity
QVQLVESGGGFVQAGGSLRLSCAASGIIFEYYTMGWYRQAPGKERELVASINYDGDSTYYADSVKGRFTISRDNAKNTVYLQMNSLKPEDTAVYYCSAEFYYVYSSFGHYYWGQGTQVTVSS	low polyreactivity
QVQLVESGGGFVQAGGSLRLSCAASGIIFTLYTMGWYIQAPGKERELVASISTRGGSTYYADSVKGRFTISRDYAKNTVYLQMNSLKPEDTAVYYCAAQGGYPVWRYYYWGQGTQVTVSS	high polyreactivity
QVQLVESGGGFVQAGGSLRLSCAASGLTLFRYAMGWYSQAPGKEREFVAAISPSGDRTYYADSVKGRFTISRDNAKNTVDLQMNSLKPEDTAVYYCNAWRYDYWGQGTQVTVSS	high polyreactivity
